Test: soluble on expression in E. coli; label from the status in PepcDB or PDB records

| Sequence | soluble on expression in E. coli |
| --- | --- |
| MQFGRHISGQFNVELESIRSQVLTMGGLVEQQLTLAMQALHEDDEKLARRVIADDHKVNAMEVSIDEACTRIIAKRQPTAKDLRLIMAIIKTITDLERIGDSATKMAYIAIERPPAKQHQFQVSLEPLCRQAIAMLHQVLDAFARMDVEAAAEIYKQDDRLDKEYEAVVRQLMTYMMEDPKNIPHILQVIWSARAIERVGDRCQNICEYIIYFVKGKDVRHLGDQGIDDVLKKPSL | not soluble |
| MAHIVQTHKLTLHDVAIDQALVYSSDSNCAELKRTFQVELAHGYNEVKVQNLPFDLVQDSIRVSGAGEAVIHDVSVKNQEGAEFVIPERVLAIKAIFEEKERAKDKVADSRVAVQKRIEGLDNLITEVAKHGKDGAFHFDGRTIESLNALHGFHQDTTVDLRAQIRTLDQDLRKAEEEYARASQDYDNTGYRWRNSAQYASIIVESEAGGAAQLTITYQVNNVSWTPFYDIRVTAGVEAEMHVTYFGKVRQYSGEDWKTVPLVLSTARPAHGVKQLPKLGALEASIVVPEPECNRGGRGGYGGGYAQDSVVMACAAPMMEMGRSRKSMKMSYAAVKSSNIASEFSIGRPATIDDRTDEYKVNIGQFTLDTKLSNVTVPSRNATAFLVANSVNTSDYPLVAGQASIFLDGAFVNKTEFEDAVVSQKFEVSLGVDPNIRIEYKPVRNYQEQSGTVEKINSQVTEKTTAVTNLRPNSVLLTIREQLPRSTDSRIKVHLNTPEAVEVDEASVEPTVGAAITPEKILDYTVQLAPGQSSTFVVKYTTEHPQAEQIRYEEKF | not soluble |
| HQYFFAKLQEQQNRYAKYGETAYNLEPNIKNGPGGLRDLQILLSISKRHFKIKKLAEGIGYGFITDKEYEELKYCQNFLWRVRFALHMLAGKPEERLSFDYQVKLAQFFGYQDQSHILAIEQFMKDYFKVIKRNRELNEMLLQWFNETIVYHQKQKIIRLDDEFQLSNRFIEVRNNRVFKQNPQSILKLFYWLVKRPDIEGVRASTIRLI | not soluble |
| MPRGYKNPRVVPDNVERVISAYTPVPGTLAWGVVWEDPFAEFVRECARDLGLPATASDDVIRGNLRLIASFVAWVIHEYDCPLRRDEIFDYILAEAYAMSVIYVRDGHGKGTSNKVRGIRRSMLTKIGWKMNKHFGEPHKHTLPQEGALEPYKQWQLNKVDAWAGSQPNERRRRNARVAIALALGAGLRTSEIAGLTADDCEVTDSGMVLIHAPGYRGGEPRITVVDHRFEDTITDRLAELADLRAAGEPGQYLYCPHLLGRTTDMVNDYMKKKITSSGADCYLQPDLRRLRNTWITGHIKAGVEEGAICQAAGLKSLNQFRDLVDEAAKARAEQSYARLRGGEHRPVLRLVQG | not soluble |
| MTKYRLHYFNARGYAEASRAMFHMAGVEFEDVRYEIDDWIKEENTLKNEMPFGQMPVLEVDGEKIPQSVAIARFVANQLGFAGQTPVEKAWADAFTDLYKDFLIDMKPWAMIAFGYPGAAGDRDELKKTSLDPAKEKYFKLLSKRLEKSKSGFLLDSGISFPDLFFFETTTSLIELEKGFLGTDFPVVNAYFKRIAEHPKLKPYLETRPYSSK | not soluble |
| MSLTSEDFLIKSKGYLDIQTGEIIKADLLIRNGKIAEIGKINTKDATVISIPDLILIPGLMDSHVHIVGNDSKGEESIADSSHMGTVWGVVNAEKTLMAGFTTVRNVGAANYADVSVRDAIERGVINGPTMLVSGPALGITGGHCDHNLLPPEFNYSSEGVVDSPWEARKMVRKNRKYGADLIKFCATGGVMSRNTDVNAKQFTLEEMKAIVDEAHNHGMKVAAHAHGLIGIKAAIKAGVDSVEHASFIDDETIDMAIKNNTVLSMDIFVSDYILGEGAKAGIREESLNKERLVGKKQRENFMNAHRRGAIITFGTDAGIFDHGDNAKQFAYMVEWGMTPLEAIQASTIKTATLFGIENIGQIKEGFDADIVGVIENPLANIRTLEEVAFVMKEGKVYKREGHHHHHH | soluble |
| GPGSMTYRYDYRPPNGGVEGSTVLFEPVAREHRATFSCGGGYGRNVMPEIPRPMVLPLVDYLDSFDKRFIEDWDEITTVQMVKLATLLNYEELLNLASAKLAVYLSEKSIEGLRAFLGVENDFKAEEEAELRKEYGRMSEEK | soluble |
| SNANVGVFVLMHGDSTASSMLKTAQELLGTSIGTAMNMPLTMEVQTMYEQLRNQVITQKESLNNGILLLTDMGSLNSFGNMLFEETGIRTKAITMTSTMIVLEAIRMASVGRSLEDIYQNIQLSFESVVREQFRSSLQK | soluble |
| MSIVLSADHKDALQEFMNISMGRAASKLATLLNLHVTISVPNIRVATEEDMRALQSYAADYYYTRQSFYGGMDGELITLMSRCGCEQVVNDLNHSKGMADGLVSIEESILDISNILSGASLKGLCQQIELKTKIQPPVIFDPTHQPLPILQWRLSLIMEINFLVEKASFSAKTIICFADKELDKVFAHLDELLM | not soluble |

Source: the DeepSol protein solubility set
